The record followed here is US20200087373A1 (UNIVERSITY OF COPENHAGEN, published 2020).

Ends that are not written are not given here. * marks the point of attachment. C18 diacid = O=C(O)CCCCCCCCCCCCCCCCC(=O)*; C16 diacid = O=C(O)CCCCCCCCCCCCCCC(=O)*; C14 diacid = O=C(O)CCCCCCCCCCCCC(=O)*; Stearoyl = CCCCCCCCCCCCCCCCCC(=O)*; Palmitoyl = CCCCCCCCCCCCCCCC(=O)*; Myristoyl = CCCCCCCCCCCCCC(=O)*; Lauroyl = CCCCCCCCCCCC(=O)*

To fix the notation:
T1: human GIP receptor (human, UniProt P48546 22-466)
T1 construct: whole, on cells; also called hGIPR
T1 sequence (looked up): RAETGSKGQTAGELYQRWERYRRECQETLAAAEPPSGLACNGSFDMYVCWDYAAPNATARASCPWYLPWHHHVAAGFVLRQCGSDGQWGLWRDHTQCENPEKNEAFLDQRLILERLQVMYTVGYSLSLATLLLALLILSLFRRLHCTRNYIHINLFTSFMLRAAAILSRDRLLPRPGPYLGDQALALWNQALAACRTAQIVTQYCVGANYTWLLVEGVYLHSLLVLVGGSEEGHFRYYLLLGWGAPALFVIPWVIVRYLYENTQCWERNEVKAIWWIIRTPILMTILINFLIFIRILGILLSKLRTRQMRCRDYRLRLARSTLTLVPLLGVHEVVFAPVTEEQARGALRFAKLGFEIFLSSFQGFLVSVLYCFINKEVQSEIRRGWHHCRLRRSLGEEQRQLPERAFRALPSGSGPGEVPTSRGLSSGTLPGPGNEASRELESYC

B1: AT119 [hGIP(5-30)NH2-C12/16] (peptide)
peptide: TFISDYSIAMDK(Lauroyl)IHQQDFVNWLLAQK-NH2
modifications: N-terminus assumed
SMILES: CCCCCCCCCCCC(=O)NCCCC[C@H](NC(=O)[C@H](CC(=O)O)NC(=O)[C@H](CCSC)NC(=O)[C@H](C)NC(=O)[C@@H](NC(=O)[C@H](CO)NC(=O)[C@H](Cc1ccc(O)cc1)NC(=O)[C@H](CC(=O)O)NC(=O)[C@H](CO)NC(=O)[C@@H](NC(=O)[C@H](Cc1ccccc1)NC(=O)[C@@H](N)[C@@H](C)O)[C@@H](C)CC)[C@@H](C)CC)C(=O)N[C@H](C(=O)N[C@@H](Cc1c[nH]cn1)C(=O)N[C@@H](CCC(N)=O)C(=O)N[C@@H](CCC(N)=O)C(=O)N[C@@H](CC(=O)O)C(=O)N[C@@H](Cc1ccccc1)C(=O)N[C@H](C(=O)N[C@@H](CC(N)=O)C(=O)N[C@@H](Cc1c[nH]c2ccccc12)C(=O)N[C@@H](CC(C)C)C(=O)N[C@@H](CC(C)C)C(=O)N[C@@H](C)C(=O)N[C@@H](CCC(N)=O)C(=O)N[C@@H](CCCCN)C(N)=O)C(C)C)[C@@H](C)CC
B2: AT140 [hGIP(5-30)NH2-C16diacid/16] (peptide)
peptide: TFISDYSIAMDK(C16 diacid)IHQQDFVNWLLAQK-NH2
modifications: N-terminus assumed
SMILES: CC[C@H](C)[C@H](NC(=O)[C@H](CO)NC(=O)[C@H](Cc1ccc(O)cc1)NC(=O)[C@H](CC(=O)O)NC(=O)[C@H](CO)NC(=O)[C@@H](NC(=O)[C@H](Cc1ccccc1)NC(=O)[C@@H](N)[C@@H](C)O)[C@@H](C)CC)C(=O)N[C@@H](C)C(=O)N[C@@H](CCSC)C(=O)N[C@@H](CC(=O)O)C(=O)N[C@@H](CCCCNC(=O)CCCCCCCCCCCCCCC(=O)O)C(=O)N[C@H](C(=O)N[C@@H](Cc1c[nH]cn1)C(=O)N[C@@H](CCC(N)=O)C(=O)N[C@@H](CCC(N)=O)C(=O)N[C@@H](CC(=O)O)C(=O)N[C@@H](Cc1ccccc1)C(=O)N[C@H](C(=O)N[C@@H](CC(N)=O)C(=O)N[C@@H](Cc1c[nH]c2ccccc12)C(=O)N[C@@H](CC(C)C)C(=O)N[C@@H](CC(C)C)C(=O)N[C@@H](C)C(=O)N[C@@H](CCC(N)=O)C(=O)N[C@@H](CCCCN)C(N)=O)C(C)C)[C@@H](C)CC
B3: AT116 [hGIP(3-30)NH2-C12/18] (peptide)
peptide: EGTFISDYSIAMDKIK(Lauroyl)QQDFVNWLLAQK-NH2
modifications: N-terminus assumed
SMILES: CCCCCCCCCCCC(=O)NCCCC[C@H](NC(=O)[C@@H](NC(=O)[C@H](CCCCN)NC(=O)[C@H](CC(=O)O)NC(=O)[C@H](CCSC)NC(=O)[C@H](C)NC(=O)[C@@H](NC(=O)[C@H](CO)NC(=O)[C@H](Cc1ccc(O)cc1)NC(=O)[C@H](CC(=O)O)NC(=O)[C@H](CO)NC(=O)[C@@H](NC(=O)[C@H](Cc1ccccc1)NC(=O)[C@@H](NC(=O)CNC(=O)[C@@H](N)CCC(=O)O)[C@@H](C)O)[C@@H](C)CC)[C@@H](C)CC)[C@@H](C)CC)C(=O)N[C@@H](CCC(N)=O)C(=O)N[C@@H](CCC(N)=O)C(=O)N[C@@H](CC(=O)O)C(=O)N[C@@H](Cc1ccccc1)C(=O)N[C@H](C(=O)N[C@@H](CC(N)=O)C(=O)N[C@@H](Cc1c[nH]c2ccccc12)C(=O)N[C@@H](CC(C)C)C(=O)N[C@@H](CC(C)C)C(=O)N[C@@H](C)C(=O)N[C@@H](CCC(N)=O)C(=O)N[C@@H](CCCCN)C(N)=O)C(C)C
B4: AT117 [hGIP(3-30)NH2[H18K]-C16/18] (peptide)
peptide: EGTFISDYSIAMDKIK(Palmitoyl)QQDFVNWLLAQK-NH2
modifications: N-terminus assumed
SMILES: CCCCCCCCCCCCCCCC(=O)NCCCC[C@H](NC(=O)[C@@H](NC(=O)[C@H](CCCCN)NC(=O)[C@H](CC(=O)O)NC(=O)[C@H](CCSC)NC(=O)[C@H](C)NC(=O)[C@@H](NC(=O)[C@H](CO)NC(=O)[C@H](Cc1ccc(O)cc1)NC(=O)[C@H](CC(=O)O)NC(=O)[C@H](CO)NC(=O)[C@@H](NC(=O)[C@H](Cc1ccccc1)NC(=O)[C@@H](NC(=O)CNC(=O)[C@@H](N)CCC(=O)O)[C@@H](C)O)[C@@H](C)CC)[C@@H](C)CC)[C@@H](C)CC)C(=O)N[C@@H](CCC(N)=O)C(=O)N[C@@H](CCC(N)=O)C(=O)N[C@@H](CC(=O)O)C(=O)N[C@@H](Cc1ccccc1)C(=O)N[C@H](C(=O)N[C@@H](CC(N)=O)C(=O)N[C@@H](Cc1c[nH]c2ccccc12)C(=O)N[C@@H](CC(C)C)C(=O)N[C@@H](CC(C)C)C(=O)N[C@@H](C)C(=O)N[C@@H](CCC(N)=O)C(=O)N[C@@H](CCCCN)C(N)=O)C(C)C
B5: AT139 [hGIP(5-30)NH2-C14diacid/16] (peptide)
peptide: TFISDYSIAMDK(C14 diacid)IHQQDFVNWLLAQK-NH2
modifications: N-terminus assumed
SMILES: CC[C@H](C)[C@H](NC(=O)[C@H](CO)NC(=O)[C@H](Cc1ccc(O)cc1)NC(=O)[C@H](CC(=O)O)NC(=O)[C@H](CO)NC(=O)[C@@H](NC(=O)[C@H](Cc1ccccc1)NC(=O)[C@@H](N)[C@@H](C)O)[C@@H](C)CC)C(=O)N[C@@H](C)C(=O)N[C@@H](CCSC)C(=O)N[C@@H](CC(=O)O)C(=O)N[C@@H](CCCCNC(=O)CCCCCCCCCCCCC(=O)O)C(=O)N[C@H](C(=O)N[C@@H](Cc1c[nH]cn1)C(=O)N[C@@H](CCC(N)=O)C(=O)N[C@@H](CCC(N)=O)C(=O)N[C@@H](CC(=O)O)C(=O)N[C@@H](Cc1ccccc1)C(=O)N[C@H](C(=O)N[C@@H](CC(N)=O)C(=O)N[C@@H](Cc1c[nH]c2ccccc12)C(=O)N[C@@H](CC(C)C)C(=O)N[C@@H](CC(C)C)C(=O)N[C@@H](C)C(=O)N[C@@H](CCC(N)=O)C(=O)N[C@@H](CCCCN)C(N)=O)C(C)C)[C@@H](C)CC
B6: AT141 [hGIP(5-30)NH2-C18diacid/16] (peptide)
peptide: TFISDYSIAMDK(C18 diacid)IHQQDFVNWLLAQK-NH2
modifications: N-terminus assumed
SMILES: CC[C@H](C)[C@H](NC(=O)[C@H](CO)NC(=O)[C@H](Cc1ccc(O)cc1)NC(=O)[C@H](CC(=O)O)NC(=O)[C@H](CO)NC(=O)[C@@H](NC(=O)[C@H](Cc1ccccc1)NC(=O)[C@@H](N)[C@@H](C)O)[C@@H](C)CC)C(=O)N[C@@H](C)C(=O)N[C@@H](CCSC)C(=O)N[C@@H](CC(=O)O)C(=O)N[C@@H](CCCCNC(=O)CCCCCCCCCCCCCCCCC(=O)O)C(=O)N[C@H](C(=O)N[C@@H](Cc1c[nH]cn1)C(=O)N[C@@H](CCC(N)=O)C(=O)N[C@@H](CCC(N)=O)C(=O)N[C@@H](CC(=O)O)C(=O)N[C@@H](Cc1ccccc1)C(=O)N[C@H](C(=O)N[C@@H](CC(N)=O)C(=O)N[C@@H](Cc1c[nH]c2ccccc12)C(=O)N[C@@H](CC(C)C)C(=O)N[C@@H](CC(C)C)C(=O)N[C@@H](C)C(=O)N[C@@H](CCC(N)=O)C(=O)N[C@@H](CCCCN)C(N)=O)C(C)C)[C@@H](C)CC

In one assay the target is T1, human GIP receptor. The assay is described as follows: 125I-hGIP competition binding, COS-7/hGIPR, 0.1% casein.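 Further: nonspecific binding defined as radioligand binding measured on untransfected cells.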
Experimental: (§1) After incubation, the cells were washed twice in ice-cold binding buffer (+/−2% HSA) and lysed using 200 mM NaOH with 1% SDS for 30 min. Nonspecific binding was determined as the binding of radioactive ligand to untransfected cells.
For the molecule B1, the concentration for half-maximal inhibition (IC50) came out at 369 nM and the logIC50 was -6.4 log M.

On to EGTFISDYSIAMDK(Stearoyl)IHQQDFVNWLLAQK-NH2 [AT114 [hGIP(3-30)NH2-C18/16]], for which the IC50 was determined as 489 nM and the logIC50 is -6.3 log M.

Regarding B2, the IC50 is 2160 nM and the logIC50 was -5.7 log M.

B3 registered an IC50 of 62 nM and a logIC50 of -7.2 log M.

For B4, the half-inhibitory concentration (IC50) was 110 nM and the logIC50 is -7 log M.

For B5, the IC50 is 153 nM and the logIC50 was -6.8 log M.

In turn, EGTFISDYSIAMDK(Myristoyl)IHQQDFVNWLLAQK-NH2 [AT111 [hGIP(3-30)NH2-C14/16]] gave a half-maximal inhibitory concentration (IC50) of 407 nM and a logIC50 of -6.4 log M.

For the molecule B6, the 50% inhibitory concentration (IC50) stood at 1900 nM and the logIC50 is -5.7 log M.

The target of another assay is T1, human GIP receptor. In words: IC50 with 2% HSA over IC50 with 0.1% casein, 125I-hGIP competition, COS-7/hGIPR.
Experimental: as §1
For B1, the “Fold change HSA (2%)/Casein (0.1%)” value is 7.2 fold.

For EGTFISDYSIAMDK(Stearoyl)IHQQDFVNWLLAQK-NH2 [AT114 [hGIP(3-30)NH2-C18/16]], the “Fold change HSA (2%)/Casein (0.1%)” value was 11.2 fold.

With B2, the “Fold change HSA (2%)/Casein (0.1%)” value is 1.5 fold.

Regarding B3, the “Fold change HSA (2%)/Casein (0.1%)” value was 5.2 fold.

Consider B4, for which the “Fold change HSA (2%)/Casein (0.1%)” value is 15.7 fold.

As to B5, the “Fold change HSA (2%)/Casein (0.1%)” value is 2.6 fold.

Take EGTFISDYSIAMDK(Myristoyl)IHQQDFVNWLLAQK-NH2 [AT111 [hGIP(3-30)NH2-C14/16]]: the “Fold change HSA (2%)/Casein (0.1%)” value came out at 5.1 fold.

As for B6, the “Fold change HSA (2%)/Casein (0.1%)” value came out at 6.5 fold.

The next assay addresses T1, human GIP receptor. The assay is described as follows: 125I-hGIP competition binding, COS-7/hGIPR, 2% HSA.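 Further: nonspecific binding defined as radioligand binding to untransfected cells.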
Experimental: as §1
As to B1, the IC50 came out at 2660 nM and the logIC50 is -5.6 log M.

As to EGTFISDYSIAMDK(Stearoyl)IHQQDFVNWLLAQK-NH2 [AT114 [hGIP(3-30)NH2-C18/16]], the IC50 worked out at 5460 nM and the logIC50 was -5.3 log M.

B2 returned a half-maximal inhibitory concentration (IC50) of 3280 nM and a logIC50 of -5.5 log M.

For B3, the IC50 was determined as 321 nM and the logIC50 is -6.5 log M.

B4 displayed an IC50 of 1730 nM and a logIC50 of -5.8 log M.

Turning to B5, the IC50 came to 401 nM and the logIC50 is -6.4 log M.

Regarding EGTFISDYSIAMDK(Myristoyl)IHQQDFVNWLLAQK-NH2 [AT111 [hGIP(3-30)NH2-C14/16]], the concentration for half-maximal inhibition (IC50) is 2090 nM and the logIC50 is -5.7 log M.

Take B6: the IC50 is 12400 nM and the logIC50 is -4.9 log M.

For another assay, the target named is T1, human GIP receptor. In words: 125I-hGIP competition binding, COS-7 cells expressing hGIPR.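 Further: nonspecific binding taken as radioligand bound by untransfected cells, binding buffer with or without 2% HSA.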
Experimental: as §1
As for B1, the IC50 worked out at 194 nM and the “log IC50” value is -6.7 log M.

EGTFISDYSIAMDK(Stearoyl)IHQQDFVNWLLAQK-NH2 [AT114 [hGIP(3-30)NH2-C18/16]]: the IC50 turned out to be 622 nM and the “log IC50” value was -6.2 log M.

As to B2, the IC50 is 2160 nM and the “log IC50” value is -5.7 log M.

B3: the IC50 was 71.2 nM and the “log IC50” value is -7.1 log M.

Take B4: the half-maximal inhibitory concentration (IC50) stood at 292 nM and the “log IC50” value is -6.5 log M.

In the case of B5, the IC50 was 153 nM and the “log IC50” value was -6.8 log M.

EGTFISDYSIAMDK(Myristoyl)IHQQDFVNWLLAQK-NH2 [AT111 [hGIP(3-30)NH2-C14/16]]: the IC50 worked out at 261 nM and the “log IC50” value is -6.6 log M.

Consider B6, for which the half-inhibitory concentration (IC50) is 1900 nM and the “log IC50” value is -5.7 log M.

As a reminder, the IC50 is the concentration that gives 50% inhibition. A higher IC50 goes with lower potency.
